Publication PMC4166121, “Endothelial nitric oxide synthase is regulated by ERK phosphorylation at Ser^602” (Bioscience Reports, 2014)

Target: T1, biotinylated calmodulin (UniProt P0DP23 1-149, biotin (biotinylated; site not stated))
T1 construct: calmodulin (CaM); experiments done 'essentially as described in [27]'; Held by its biotin on streptavidin sensors (BLI) or a biotin CAPture chip (SPR); also called CaM; biotinylated CaM
Assay: BLI; biotinylated CaM immobilised on streptavidin sensors; eNOS 0, 10.9, 31.9, 43.7 and 87.5 nM as analyte; 180 s association, 180 s dissociation; 10 mM HEPES pH 7.4, 100 mM NaCl, 10% glycerol, 10 uM CaCl2, 0.05% surfactant P-20; 25°C; global single-state fit
Conditions: both partners purified

koff: 0.00033 s⁻¹
B1: endothelial nitric oxide synthase phosphorylated by ERK (enzyme)
chain: MGNLKSVGQEPGPPCGLGLGLGLGLCGKQGPASPAPEPSRAPAPATPHAPDHSPAPNSPTLTRPPEGPKFPRVKNWELGSITYDTLCAQSQQDGPCTPRCCLGSLVLPRKLQTRPSPGPPPAEQLLSQARDFINQYYSSIKRSGSQAHEERLQEVEAEVASTGTYHLRESELVFGAKQAWRNAPRCVGRIQWGKLQVFDARDCSSAQEMFTYICNHIKYATNRGNLRSAITVFPQRAPGRGDFRIWNSQLVRYAGYRQQDGSVRGDPANVEITELCIQHGWTPGNGRFDVLPLLLQAPDEAPELFVLPPELVLEVPLEHPTLEWFAALGLRWYALPAVSNMLLEIGGLEFSAAPFSGWYMSTEIGTRNLCDPHRYNILEDVAVCMDLDTRTTSSLWKDKAAVEINLAVLHSFQLAKVTIVDHHAATVSFMKHLDNEQKARGGCPADWAWIVPPISGSLTPVFHQEMVNYILSPAFRYQPDPWKGSATKGAGITRKKTFKEVANAVKISASLMGTLMAKRVKATILYASETGRAQSYAQQLGRLFRKAFDPRVLCMDEYDVVSLEHEALVLVVTSTFGNGDPPENGESFAAALMEMSGPYNSSPRPEQHKSYKIRFNSVSCSDPLVSSWRRKRKESSNTDSAGALGTLRFCVFGLGSRAYPHFCAFARAVDTRLEELGGERLLQLGQGDELCGQEEAFRGWAKAAFQASCETFCVGEEAKAAAQDIFSPKRSWKRQRYRLSTQAEGLQLLPGLIHVHRRKMFQATVLSVENLQSSKSTRATILVRLDTAGQEGLQYQPGDHIGICPPNRPGLVEALLSRVEDPPPPTESVAVEQLEKGSPGGPPPSWVRDPRLPPCTLRQALTFFLDITSPPSPRLLRLLSTLAEEPSEQQELETLSQDPRRYEEWKWFRCPTLLEVLEQFPSVALPAPLLLTQLPLLQPRYYSVSSAPNAHPGEVHLTVAVLAYRTQDGLGPLHYGVCSTWLSQLKTGDPVPCFIRGAPSFRLPPDPYVPCILVGPGTGIAPFRGFWQERLHDIESKGLQPAPMTLVFGCRCSQLDHLYRDEVQDAQERGVFGRVLTAFSREPDSPKTYVQDILRTELAAEVHRVLCLERGHMFVCGDVTMATSVLQTVQRILATEGDMELDEAGDVIGVLRDQQRYHEDIFGLTLRTQEVTSRIRTQSFSLQERHLRGAVPWAFDPPGPDTPGP
modifications: phosphothreonine at 46, phosphoserine at 58, phosphoserine at 602 (by ERK in vitro; 2-3 phosphates per monomer; phosphorylation incomplete, at least 75%)
notes: endothelial nitric oxide synthase (eNOS); the residue numbers used (Thr46, Ser58, Ser602; Ser602 = human Ser600) are those of bovine eNOS; Same protein as m2 after the ERK kinase reaction (20 mM Hepes pH 7.4, 1 mM DTT, 10 mM MgCl2, 1 mM ATP, 10% glycerol, room temperature); also called ERK phosphorylated eNOS; phosphorylated eNOS
